Experimental data as given in PMC6385126.

Columns and labels:
[1] = system: His1 (position 1, -----HVD---); test: NMR; conditions: 25 °C; none stated (0.1% DSS as shift standard); Non-deuterated peptide, 1 mM, free in solution
[2] = system: His1 (position 1, -----HVD---); test: Raman; conditions: 22 °C; not stated (no added salt apart from NaOH/HCl used for pH adjustment); none stated; C2-deuterated peptide H(C2-D)VD, about 10 mM, free in solution

For “HVD tripeptide (Ac-His-Val-Asp-NH2), N-terminal fragment of a hydrogel-forming semenogelin I peptide (synthetic; sequence derived from Homo sapiens semenogelin I)”, the pKa [1] was 6.87 ± 0.03 and the pKa [2] was 6.82.
